The values that follow come from article PMC4454188.

Test [1] deals with His-TraM (R64 TraM, full length) (plasmid R64). As to the kind of experiment: SEC-MALS.
For test [2], the target named is DotIC, C-terminal periplasmic domain of DotI (residues 73-212) (L. pneumophila). As to the kind of experiment: crystal structure.
For test [3] the target is unchanged. Nature of the test: SEC-MALS.
For test [4], the target named is Strep-3xFLAG-DotJ (E. coli) (L. pneumophila). As to the kind of experiment: SEC.

“His-TraM (R64 TraM, full length) (natural protein)” yielded a stoichiometry N in test [1] of 6.
For “DotIC, C-terminal periplasmic domain of DotI (residues 73-212) (domain or fragment)”, in test [2], the stoichiometry N (subunits in a ring (two rings stacked)) was found to be 8. This substance also showed a stoichiometry N in test [3] of 16.
Substance “DotI (produced in E. coli with Strep-3xFLAG-DotJ) (natural protein)” registered a stoichiometry N (DotI per DotJ) in test [4] of 1.87.
